The target in assay [1] is truncated human Derlin-1 (Derlin-1^Δ215-239) (human) (UniProt Q9BUN8). Description: cryo-EM structure.
Assay [2] addresses wild-type C-terminally Strep-tagged Derlin-1 (human) (UniProt Q9BUN8). Description: cross-linking.

A word on the stoichiometry N: it is a count of units in the complex or per binding partner. “truncated human Derlin-1 (Derlin-1^Δ215-239) (from UniProt Q9BUN8) (natural protein)” yielded a stoichiometry N in assay [1] of 6.
Substance “wild-type C-terminally Strep-tagged Derlin-1 (from UniProt Q9BUN8 1-251) (natural protein)” showed a stoichiometry N in assay [2] of 2.

(Values after article PMC12534507.)
